Assays:
[1] = physchem; assay type: physicochemical; conditions: pH 7.4
Experimental: Peptide synthesis was performed using an automated solid-phase peptide synthesizer employing traditional Fmoc chemistry and using a Rink Amide resin. Briefly, the resin (100 µmol of the resin substituted peptide anchors) was deprotected using piperidine, resulting in the formation of a primary amine from which the C-terminus of the growing peptide was anchored.
The Fmoc protected amino acids (300 µmol) with appropriate orthogonal protection were activated with HBTU and sequentially added to the resin. The resulting peptide was orthogonally deprotected and cleaved from the resin using a cocktail consisting of triisopropyl silane (0.1 mL), water (0.1 mL), 3,6-dioxa-1,8-octanedithiol (0.1 mL), trifluoroacetic acid (4.625 mL) and thioanisole (0.075 mL), respectively. The cleaved peptide was subsequently precipitated and washed using cold (0 °C) methyl-tert-butyl ether (10 mL×3). The crude conjugate was dried by a centrivap concentrator and weighed. ES-MS was used to determine the molecular mass of the prepared peptides. All conjugate were peak purified to • 95% purity and quantified by RP-HPLC prior to in vitro/in vivo investigations.
HPLC Purification and Analysis Methodology […]
The partition coefficient was determined for the 177Lu-labeled conjugate. […] Aliquots of 100 µL were taken from each layer and the radioactivity of each was quantified by a Ȗ-counter. […]

[2] = Biodistribution, BB2r-targeted uptake, subcutaneous PC-3 xenograft model; conditions: female, NOD SCID, mouse, iv, total radioactivity, 1 h 5 min p.i., mean ± SD; for dose excreted at 65 min: urine and faeces, excretion (urine and fecal material)

## CSCC[C@H](NC(=O)[C@H](CC(C)C)NC(=O)[C@H](Cc1c[nH]cn1)NC(=O)CNC(=O)[C@@H](NC(=O)[C@H](C)NC(=O)[C@H](Cc1c[nH]c2ccccc12)NC(=O)[C@H](CCC(N)=O)NC(=O)CCOCCOCCOCCOCCNC(=O)[C@@H](CO)NC(=O)[C@@H](CO)NC(=O)[C@@H](CO)NC(=O)[C@@H](CO)NC(=O)[C@@H](CO)NC(=O)CN1CCN(CC(=O)O)CCN(CC(=O)O)CCN(CC(=O)O)CC1)C(C)C)C(N)=O [[^177Lu]Lu-DOTA-SP714, metal not drawn]
[1]
  logD: -2.2 ± 0.1
[2]; blood, 10 uCi, blood uptake, tumor volume 300-700 mm^3, 10 µCi i.v.
  tissue uptake at 65 min: 0.78 ± 0.81 %ID/g
[2]; blood, 10 uCi, blood uptake, tumor volume <300 mm^3, 10 µCi i.v.
  tissue uptake at 65 min: 0.49 ± 0.4 %ID/g
[2]; blood, 10 uCi, blood uptake, tumor volume >700 mm^3, 10 µCi i.v.
  tissue uptake at 65 min: 2.27 ± 0.6 %ID/g
[2]; bone, 10 uCi, bone uptake, tumor volume 300-700 mm^3, 10 µCi i.v.
  tissue uptake at 65 min: 0.26 ± 0.19 %ID/g
[2]; bone, 10 uCi, bone uptake, tumor volume <300 mm^3, 10 µCi i.v.
  tissue uptake at 65 min: 0.2 ± 0.12 %ID/g
[2]; bone, 10 uCi, bone uptake, tumor volume >700 mm^3, 10 µCi i.v.
  tissue uptake at 65 min: 0.67 ± 0.07 %ID/g
[2]; brain, 10 uCi, brain uptake, tumor volume 300-700 mm^3, 10 µCi i.v.
  tissue uptake at 65 min: 0.03 ± 0.01 %ID/g
[2]; brain, 10 uCi, brain uptake, tumor volume <300 mm^3, 10 µCi i.v.
  tissue uptake at 65 min: 0.03 ± 0.02 %ID/g
[2]; brain, 10 uCi, brain uptake, tumor volume >700 mm^3, 10 µCi i.v.
  tissue uptake at 65 min: 0.09 ± 0.05 %ID/g
[2]; heart, 10 uCi (370 kBq), heart uptake, tumor volume 300-700 mm^3, 10 µCi i.v.
  tissue uptake at 65 min: 0.16 ± 0.03 %ID/g
[2]; heart, 10 uCi (370 kBq), heart uptake, tumor volume >700 mm^3, 10 µCi i.v.
  tissue uptake at 65 min: 0.68 ± 0.48 %ID/g
[2]; heart, 10 uCi, heart uptake, tumor volume <300 mm^3, 10 µCi i.v.
  tissue uptake at 65 min: 0.16 ± 0.05 %ID/g
[2]; kidney, 10 uCi, kidney uptake, tumor volume 300-700 mm^3, 10 µCi i.v.
  tissue uptake at 65 min: 2.59 ± 1.02 %ID/g
[2]; kidney, 10 uCi, kidney uptake, tumor volume <300 mm^3, 10 µCi i.v.
  tissue uptake at 65 min: 2.75 ± 1.29 %ID/g
[2]; kidney, 10 uCi, kidney uptake, tumor volume >700 mm^3, 10 µCi i.v.
  tissue uptake at 65 min: 6.64 ± 2.83 %ID/g
[2]; large intestine, 10 uCi, large intestine uptake, tumor volume 300-700 mm^3, 10 µCi i.v.
  tissue uptake at 65 min: 2.63 ± 2.12 %ID/g
[2]; large intestine, 10 uCi, large intestine uptake, tumor volume <300 mm^3, 10 µCi i.v.
  tissue uptake at 65 min: 1.38 ± 0.75 %ID/g
[2]; large intestine, 10 uCi, large intestine uptake, tumor volume >700 mm^3, 10 µCi i.v.
  tissue uptake at 65 min: 3.75 ± 2.89 %ID/g
[2]; liver, 10 uCi, liver uptake, tumor volume 300-700 mm^3, 10 µCi i.v.
  tissue uptake at 65 min: 0.31 ± 0.06 %ID/g
[2]; liver, 10 uCi, liver uptake, tumor volume <300 mm^3, 10 µCi i.v.
  tissue uptake at 65 min: 0.29 ± 0.12 %ID/g
[2]; liver, 10 uCi, liver uptake, tumor volume >700 mm^3, 10 µCi i.v.
  tissue uptake at 65 min: 0.9 ± 0.49 %ID/g
[2]; lung, 10 uCi (370 kBq), lung uptake, tumor volume 300-700 mm^3, 10 µCi i.v.
  tissue uptake at 65 min: 0.64 ± 0.39 %ID/g
[2]; lung, 10 uCi (370 kBq), lung uptake, tumor volume <300 mm^3, 10 µCi i.v.
  tissue uptake at 65 min: 1.08 ± 1.55 %ID/g
[2]; lung, 10 uCi, lung uptake, tumor volume >700 mm^3, 10 µCi i.v.
  tissue uptake at 65 min: 1.39 ± 0.67 %ID/g
[2]; muscle, 10 uCi, muscle uptake, tumor volume 300-700 mm^3, 10 µCi i.v.
  tissue uptake at 65 min: 0.15 ± 0.07 %ID/g
[2]; muscle, 10 uCi, muscle uptake, tumor volume <300 mm^3, 10 µCi i.v.
  tissue uptake at 65 min: 0.17 ± 0.12 %ID/g
[2]; muscle, 10 uCi, muscle uptake, tumor volume >700 mm^3, 10 µCi i.v.
  tissue uptake at 65 min: 0.46 ± 0.24 %ID/g
[2]; pancreas, 10 uCi, pancreas uptake, tumor volume 300-700 mm^3, 10 µCi i.v.
  tissue uptake at 65 min: 23.8 ± 8.43 %ID/g
[2]; pancreas, 10 uCi, pancreas uptake, tumor volume <300 mm^3, 10 µCi i.v.
  tissue uptake at 65 min: 19.4 ± 13 %ID/g
[2]; pancreas, 10 uCi, pancreas uptake, tumor volume >700 mm^3, 10 µCi i.v.
  tissue uptake at 65 min: 22.6 ± 7.83 %ID/g
[2]; small intestine, 10 uCi, small intestine uptake, tumor volume 300-700 mm^3, 10 µCi i.v.
  tissue uptake at 65 min: 2.82 ± 1.14 %ID/g
[2]; small intestine, 10 uCi, small intestine uptake, tumor volume <300 mm^3, 10 µCi i.v.
  tissue uptake at 65 min: 2.53 ± 1.39 %ID/g
[2]; small intestine, 10 uCi, small intestine uptake, tumor volume >700 mm^3, 10 µCi i.v.
  tissue uptake at 65 min: 4.21 ± 1.92 %ID/g
[2]; spleen, 10 uCi, spleen uptake, tumor volume 300-700 mm^3, 10 µCi i.v.
  tissue uptake at 65 min: 2.53 ± 1.31 %ID/g
[2]; spleen, 10 uCi, spleen uptake, tumor volume <300 mm^3, 10 µCi i.v.
  tissue uptake at 65 min: 1.46 ± 1.32 %ID/g
[2]; spleen, 10 uCi, spleen uptake, tumor volume >700 mm^3, 10 µCi i.v.
  tissue uptake at 65 min: 3.02 ± 0.63 %ID/g
[2]; stomach, 10 uCi, stomach uptake, tumor volume 300-700 mm^3, 10 µCi i.v.
  tissue uptake at 65 min: 1.68 ± 0.85 %ID/g
[2]; stomach, 10 uCi, stomach uptake, tumor volume <300 mm^3, 10 µCi i.v.
  tissue uptake at 65 min: 0.94 ± 0.53 %ID/g
[2]; stomach, 10 uCi, stomach uptake, tumor volume >700 mm^3, 10 µCi i.v.
  tissue uptake at 65 min: 4.89 ± 3.52 %ID/g
[2]; tumor, 10 uCi, tumor uptake, tumor volume 300-700 mm^3, 10 µCi i.v.
  tissue uptake at 65 min: 5.35 ± 1.75 %ID/g
[2]; tumor, 10 uCi, tumor uptake, tumor volume <300 mm^3, 10 µCi i.v.
  tissue uptake at 65 min: 4.16 ± 1.74 %ID/g
[2]; tumor, 10 uCi, tumor uptake, tumor volume >700 mm^3, 10 µCi i.v.
  tissue uptake at 65 min: 9.44 ± 3.66 %ID/g
[2]; 10 uCi, tumor volume 300-700 mm^3, 10 µCi i.v.
  dose excreted at 65 min: 73.2 ± 7%
[2]; 10 uCi, tumor volume <300 mm^3, 10 µCi i.v.
  dose excreted at 65 min: 68.5 ± 23.4%
[2]; 10 uCi, tumor volume >700 mm^3, 10 µCi i.v.
  dose excreted at 65 min: 59 ± 12.4%
